In patent US12276665B2, “Methods for screening and identifying agents that inhibit or modulate the nuclear egress complex of herpesviruses” (priority 2018, dated 2025):
Non-standard residues stand in square brackets, D forms with d. Residues, ends and D or L forms follow the SMILES beside them. *: point of attachment. Biotin = O=C1N[C@H]2[C@H](CS[C@H]2CCCCC(=O)*)N1; AEEA = NCCOCCOCC(=O)O

T1: EBV BFLF2 (Epstein-Barr virus, UniProt P0CK47)
T1 construct: expressed in transfected cells; host or cells: 293T
T1 sequence (P0CK47 whole entry, looked up): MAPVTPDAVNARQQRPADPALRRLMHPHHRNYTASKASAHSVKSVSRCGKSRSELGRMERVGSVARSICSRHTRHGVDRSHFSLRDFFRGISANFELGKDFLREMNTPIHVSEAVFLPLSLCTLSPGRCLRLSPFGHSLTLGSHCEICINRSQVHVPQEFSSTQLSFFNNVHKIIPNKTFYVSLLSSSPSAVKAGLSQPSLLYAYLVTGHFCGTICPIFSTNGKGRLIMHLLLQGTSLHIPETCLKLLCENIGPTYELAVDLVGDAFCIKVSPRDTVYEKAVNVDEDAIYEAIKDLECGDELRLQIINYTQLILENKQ

B1: MCMV pM50: MCMV core NEC protein, HA-tagged, transiently expressed (protein)
chain: MEIDKNVGADLISNTRRILRLDENELRITDTALICKNPNYSLCDAMLTTDIVYPVEYLLSYWECRSGRTACFVFKNTGCRVSLSCYIGFPERLKDLKRVCDFNFLSVNEALVVTLADIERIKPCDKGVLTNCVVRKSNSGMSYNIEVVAFGPDNEAEYQALLRDIYARRMTSVPTDCGSLICRRARCLAAAPPRRPPPPPPPGQRWGSLRKHGPVLTRRYAGGGGAAKNQPAAASPTSTSTSSPAAPSRDQDQTQRPPPAGDTNVTAAETTYSERTISFLTRHANAIHCALILAAAIALVLLWLLYWHAARSAGHP
modifications: Mouse cytomegalovirus 1
notes: MCMV core NEC protein, HA-tagged, transiently expressed
B2: BFRF1: EBV groove protein of the core NEC; His-tagged in ELISA, HA-tagged in CoIP (protein)
chain: MASPEERLLDELNNVIVSFLCDSGSLEVERCSGAHVFSRGSSQPLCTVKLRHGQIYHLEFVYKFLAFKLKNCNYPSSPVFVISNNGLATTLRCFLHEPSGLRSGQSGPCLGLSTDVDLPKNSIIMLGQDDFIKFKSPLVFPAELDLLKSMVVCRAYITEHRTTMQFLVFQAANAQKASRVMDMISDMSQQLSRSGQVEDTGARVTGGGGPRPGVTHSGCLGDSHVRGRGGWDLDNFSEAETEDEASYAPWRDKDSWSESEAAPWKKELVRHPIRRHRTRETRRMRGSHSRVEHVPPETRETVVGGAWRYSWRATPYLARVLAVTAVALLLMFLRWT
modifications: Human herpesvirus 4
notes: EBV groove protein of the core NEC; His-tagged in ELISA, HA-tagged in CoIP

Legend:
[1] = biological target: pUL50-pUL53 interaction (HCMV NEC) (Human cytomegalovirus, UniProt P16791); test: competitive binding assay
Experimental: These experiments were designed to address the peptide-protein interactions for each virus, as well as the ability of the hook peptides and proteins to cross-interact with the groove proteins of the respective other virus.
After blocking with BSA plates were incubated with 50 μL/well of inhibitor solutions at different concentration ranges, and 50 μL/well of His-tagged pUL50 (0.16 μg/mL) and BFRF1 (5 μg/mL), respectively. His-tagged pUL50 and BFRF1 were detected and plates developed as described above. IC50-values were determined using the regression wizard of GraphPad Prism. All data points present means of duplicates. Inhibition was calculated according to the following formula: % Inhibition=[1−(Apeptide−Ablank1)/(A100%−Ablank2)]×100, in which “100%” is a sample without inhibitor, “blank1” is a sample without coated hook protein and “blank2” is a sample without coated hook protein and without inhibitor.

pUL53 = pUL53 (Human cytomegalovirus, UniProt P16794); conditions: ratio of EC50 values
Experimental: Plates were washed four times with 0.01% Tween 20 in 0.1 M phosphate buffer pH 7.2 (300 μL/well) after each incubation step. […] All data points present means of duplicates.

HCMV pUL53 = HCMV pUL53 (Human cytomegalovirus, UniProt P16794); conditions: 293T cells, transient transfection
Experimental: CoIP analyses were performed to investigate specific protein-protein interactions (Bannister and Kouzarides, 1996). To this end, 293T cells (5×10^6) were transfected with the plasmids coding for the proteins of interest. One day before CoIP, 50 mg/ml protein A sepharose or 25 μl of dynabeads Protein A were incubated with the appropriate antibody in 500 μl CoIP buffer at 4° C. overnight. Two or three dpt cells were harvested. Lysis was performed using 500 μl CoIP buffer containing protease inhibitors and PMSF on ice for 20 min, sonificated (20 impulses, 80%) and centrifuged (14000 rpm, 10 min, 4° C.). For expression controls 50 μl aliquots of each supernatant were taken and boiled in 50 μl 2× boiling mix for 10 min at 95° C. The antibody-loaded dynabeads or sepharose beads (washed three times with CoIP buffer) were incubated with the lysates for 1.5 h at 4° C. Thereafter, samples were washed with CoIP buffer five times, resuspended in 30 μl 2× boiling mix and boiled 10 min at 95° C. Separation and analyzation of protein complexes were performed using SDS-PAGE and Wb.
Protein samples obtained from CoIP or cell lysates were separated by SDS-PAGE and transferred to a nitrocellulose membrane by electroblotting (200-300 mA for 80 min). […] Finally, the membranes were washed again three times with PBSo over 30 min, shortly incubated within a freshly prepared ECL solution (10 ml ECL solution A, 100 μl ECL solution B and 3.1 μl H2O2) and the proteins were detected by the use of the FUJIFILM Luminescent Image Analyzer LAS-1000 (FUJIFILM Europe GmbH, Düsseldorf, Germany). […]
At three dpt, cells were lysed and HA-tagged proteins were precipitated using pAb-HA or a rabbit antibody Fc fragment as specificity control. […] Lysate controls taken prior to the IP and CoIP samples were subjected to standard Wb analysis and protein expression was analyzed using tag- or protein-specific antibodies.

EBV BFLF2 = biological target: T1, EBV BFLF2; test: coimmunoprecipitation (CoIP), proteins from transient transfection; format: binding; conditions: 293T cells
Excerpt: (§1) Two or three dpt cells were harvested.

VZV Orf27 = biological target: T2, VZV Orf27 (Varicella-zoster virus, UniProt P09283); test: as above; format: binding; conditions: 293T cells
T2 construct: expressed in transfected cells; host or cells: 293T
Excerpt: as §1

MCMV pM53 = test: as above; format: binding; conditions: 293T cells
Excerpt: as §1

Molecule	IC50 [1] [nM]	fold lower inhibitory activity than the HCMV counterpart (hook protein or hook peptide) ([1]; ratio of IC50 values)	fold stronger interaction than the BFRF1-BFLF2 interaction of EBV (pUL53)	CoIP interaction with HCMV pUL53 (HCMV pUL53)	CoIP interaction with EBV BFLF2 (EBV BFLF2)	CoIP interaction with VZV Orf27 (VZV Orf27)	CoIP interaction with MCMVpM53 (MCMV pM53)
CC[C@H](C)[C@H](NC(=O)CNC(=O)[C@H](CCCNC(=N)N)NC(=O)[C@H](Cc1ccccc1)NC(=O)[C@H](Cc1ccccc1)NC(=O)[C@H](CC(=O)O)NC(=O)[C@H](CCCNC(=N)N)NC(=O)[C@H](CC(C)C)NC(=O)[C@H](CO)NC(=O)[C@H](Cc1ccccc1)NC(=O)[C@H](Cc1c[nH]cn1)NC(=O)[C@H](CO)NC(C)=O)C(=O)N[C@@H](CO)C(=O)N[C@@H](C)C(=O)N[C@@H](CC(N)=O)C(=O)N[C@@H](Cc1ccccc1)C(=O)N[C@@H](CCC(=O)O)C(=O)N[C@@H](CC(C)C)C(=O)NCC(=O)N[C@@H](CCCCN)C(=O)N[C@@H](CC(=O)O)C(=O)N[C@@H](Cc1ccccc1)C(=O)N[C@@H](CC(C)C)C(=O)N[C@@H](CCCNC(=N)N)C(=O)N[C@@H](CCC(=O)O)C(=O)N[C@@H](CCSC)C(=O)N[C@@H](CC(N)=O)C(=O)N[C@H](C(=O)N1CCC[C@H]1C(=O)NCCOCCOCC(=O)N[C@@H](CCCCNC(=O)CCCC[C@@H]1SC[C@@H]2NC(=O)N[C@@H]21)C(N)=O)[C@@H](C)O [EBV hook peptide] (Ac-SHFSLRDFFRGISANFELGKDFLREMNTP[AEEA]K(Biotin)-NH2)	2600	approximately 22 fold					
CC[C@H](C)[C@H](NC(=O)[C@H](C)NC(=O)[C@H](CCSC)NC(=O)[C@H](CCCCN)NC(=O)[C@H](CCSC)NC(=O)[C@H](CCSC)NC(=O)[C@H](CC(N)=O)NC(=O)[C@H](CC(C)C)NC(=O)[C@H](Cc1ccc(O)cc1)NC(=O)[C@H](CCCCN)NC(=O)[C@H](CC(C)C)NC(=O)[C@H](CCC(=O)O)NC(=O)[C@H](CC(C)C)NC(=O)[C@H](CCC(=O)O)NC(=O)[C@@H]1CCCN1C(=O)[C@H](Cc1c[nH]cn1)NC(=O)[C@H](CCC(=O)O)NC(=O)[C@H](CCCNC(=N)N)NC(=O)[C@H](Cc1ccccc1)NC(=O)[C@@H](NC(=O)[C@H](CC(=O)O)NC(=O)[C@H](Cc1c[nH]cn1)NC(=O)[C@H](CC(C)C)NC(=O)[C@H](CC(=O)O)NC(=O)[C@H](Cc1c[nH]cn1)NC(=O)[C@H](CC(C)C)NC(=O)[C@@H](NC(=O)[C@H](CC(C)C)NC(C)=O)[C@@H](C)O)[C@@H](C)CC)C(=O)N[C@H](C(=O)NCCOCCOCC(=O)N[C@@H](CCCCNC(=O)CCCC[C@@H]1SC[C@@H]2NC(=O)N[C@@H]21)C(N)=O)[C@@H](C)O [HCMV hook peptide]	114						
pUL50: HCMV groove protein of the core NEC; His-tagged in ELISA, HA-tagged in CoIP			approximately 20 fold	+	−	−	+
B1				+	−		+
B2				−	+		
